According to PMC5957299:

What was measured:
[1] = FVIII antigen ELISA, 293T cell extracts; conditions: control: WT full-length FVIII
[2] = FVIII antigen ELISA, 293T conditioned media; conditions: control: WT full-length FVIII
[3] = Coatest SP4 chromogenic assay, 293T media; conditions: control: WT full-length FVIII
[4] = chromogenic activity / ELISA antigen ratio in media; conditions: control: WT full-length FVIII
[5] = anti-FLAG IP/blot of 293T conditioned media; conditions: glycan lost
[6] = anti-FLAG IP/blot of media, TM 2 μg/ml 12 h; conditions: glycan lost; control: same construct, untreated

Coagulation factor VIII (FVIII): D2131N
expression_or_secretion, percent_of_wt ([1]; glycan gained): no change
expression_or_secretion, percent_of_wt ([2]; glycan gained): no change
other: cofactor (coagulant) activity in conditioned media, percent_of_wt ([3]; glycan gained): decreases
other: relative (specific) cofactor activity, percent_of_wt ([4]; glycan gained): decreases

Coagulation factor VIII (FVIII): N2118Q
expression_or_secretion, percent_of_wt ([1]; glycan lost): no change
expression_or_secretion, percent_of_wt ([2]; glycan lost): no change
expression_or_secretion ([5]; control: WT C domain): decreases
other: cofactor (coagulant) activity in conditioned media, percent_of_wt ([3]; glycan lost): no change
other: relative (specific) cofactor activity, percent_of_wt ([4]; glycan lost): no change

Coagulation factor VIII (FVIII): N2118Q + D2131N
expression_or_secretion ([5]; control: D2131N C domain): abolishes

Coagulation factor VIII (FVIII): TM, A469S A2 domain
expression_or_secretion [6]: increases

Coagulation factor VIII (FVIII): TM, A469T A2 domain
expression_or_secretion [6]: increases

Coagulation factor VIII (FVIII): TM, G701S A2 domain
expression_or_secretion [6]: decreases

Coagulation factor VIII (FVIII): TM, I566T A2 domain
expression_or_secretion [6]: decreases

Coagulation factor VIII (FVIII): TM, M614T A2 domain
expression_or_secretion [6]: no change

Coagulation factor VIII (FVIII): TM, WT C domain
expression_or_secretion [6]: decreases

Coagulation factor VIII (FVIII): W2062S
expression_or_secretion, percent_of_wt ([1]; glycan gained): no change
expression_or_secretion, percent_of_wt ([2]; glycan gained): no change
other: cofactor (coagulant) activity in conditioned media, percent_of_wt ([3]; glycan gained): decreases
other: relative (specific) cofactor activity, percent_of_wt ([4]; glycan gained): decreases
